± gives the standard deviation.
Assay: protein stability index of a GFP-peptide fusion (GPS, HEK-293T) (PSI 1-6); higher = more stable
[1] = treatment: DMSO, c terminus: a fixed tail appended
[2] = treatment: MLN4924 1 uM, 8 h, c terminus: a fixed tail appended
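Note: 24-mer peptide tiles fused after GFP, lentivirally expressed, FACS-sorted into six equal bins by GFP/DsRed ratio, decoded by Illumina sequencing, PSI is the read-weighted mean bin number.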

Sequence | protein stability index [1] | protein stability index [2] | protein stability index (treatment: DMSO, c terminus: native) | protein stability index (treatment: MLN4924 1 uM, 8 h, c terminus: native)
LDQAPKARKYFERLPGGGWTLRRT [DYRK1B] | 3.48 ± 0.27 | 3.33 ± 0.33 |  | 
ITYESSQVDPGTDLEPGVLMSAQT [EPB41L3] | 4.29 ± 0.33 | 4.7 ± 0.085 |  | 
NLISPVRNGAVRRFGQTIQSFTLR [NET1] | 2.65 ± 0.32 | 2.7 ± 0.14 |  | 
CYEHFAELDIPQSVQQNGSIYIHV [CLPTM1] | 2.75 ± 0.48 | 2.98 ± 0.45 |  | 
QLMTSQFISVFSNLLESKADGIEV [ZER1] | 2.89 ± 0.62 | 2.5 ± 0.54 |  | 
LLLPGLNQHGIILKYIGMAKREIN [ARL6IP1] | 2.42 ± 0.68 | 2.38 ± 0.97 |  | 
DEVARRWGKRKNKPKMNYEKLSRG [ETS2] | 4.11 ± 0.35 | 4.31 ± 0.52 |  | 
GAGHCSASPGPAAPTARMPGRLRG | 4.82 ± 0.34 | 4.78 ± 0.25 |  | 
DLRTVDPETQARLEALLEAAGIGK [ANKRD17] | 3.84 ± 0.36 | 3.94 ± 0.16 |  | 
SENARLVLQIDNAKLAADDFRTKY [KRT36] | 4.03 ± 0.2 | 4 ± 0.24 |  | 
KAHSGRIPISLETQAHIQECKHPS [MCOLN1] | 4.5 ± 0.12 | 4.65 ± 0.14 |  | 
GGLAESELRPRRGRCGPQAARAAG [POMT2] | 3.71 ± 0.17 | 3.75 ± 0.38 |  | 
LVGDSDVGKGEILASLQDGAAESP [RAB40B] | 5.18 ± 0.17 | 5.36 ± 0.32 |  | 
RILDELTLCKADLEAQVESLKEEL [KRT36] | 3.76 ± 0.35 | 3.68 ± 0.54 |  | 
KSLEWSPWNCILLTKDEAAAHLKL [IQUB] | 2.41 ± 0.22 | 2.56 ± 0.11 |  | 
EEVVSTLDAVQVLSGVSQLLPKSR [FCHO1] | 4.3 ± 0.28 | 4.43 ± 0.24 |  | 
HESEGGRTPLMKAARAGHVCTVQF [ANKRD17] | 2.71 ± 0.28 | 2.6 ± 0.33 |  | 
YFYPRGGGSGGGAGGAGGGVTEEQ [JUNB] | 5.01 ± 0.3 | 4.89 ± 0.41 |  | 
KKVLNLLKGAFPARLKKVLIVGAP [PTPN9] | 2.81 ± 0.83 | 2.99 ± 0.43 |  | 
LCQCHEGFALNPDKKTCTKIDYCA [MATN2] | 2.95 ± 0.29 | 3.35 ± 0.6 |  | 
EAEALAGTGLVLDEQLNEFHCLWD [HDAC6] | 4.29 ± 0.061 | 4.15 ± 0.45 |  | 
QPSQQQQPPPQEEPGTPSSSPDDK [KLHL14] | 5.6 ± 0.26 | 5.59 ± 0.15 |  | 
ESKVREATNDDPWGPSGQLMGEIA [CLINT1] | 4.7 ± 0.12 | 4.78 ± 0.096 |  | 

Sequence | protein stability index [1] | protein stability index [2] | protein stability index (treatment: DMSO, c terminus: native) | protein stability index (treatment: MLN4924 1 uM, 8 h, c terminus: native)
HTFKTRFTQPLLPAFTVWCGSFQV [FSD1] | 3.1 ± 0.55 | 2.69 ± 1.1 |  | 
RSGGHAPRVRELLLDALSPEQLVL [ESR2] | 2.82 ± 0.14 | 2.91 ± 0.34 |  | 
QDVVQAADLLLLTDLKTLCCEFLE [GAN] | 2.55 ± 0.13 | 2.6 ± 0.27 |  | 
LSIVLERMRYEGVVDIFQTVKMLR [PTPRD] | 2.1 ± 0.48 | 2.42 ± 0.58 |  | 
FTRNEFNLESKSTIGVEFATRSIQ [RAB11A] | 2.97 ± 0.3 | 3.2 ± 0.21 |  | 
LLNTDLHGHNIGKKMSCQQFIANL [PSD2] | 2.24 ± 0.29 | 2.46 ± 0.13 |  | 
ETPGCATLLPASLFVNSHPGIDRP [DCAF4] | 3.61 ± 0.3 | 3.75 ± 0.1 |  | 
YSDRTNIISKPVPQTLIMAYDYAK [FEM1C] | 2.36 ± 0.24 | 2.49 ± 0.41 |  | 
MAAGSEPESVEASPVVVEKSNSYP [KMT2E] | 5.3 ± 0.11 | 5.19 ± 0.24 |  | 
SGAGRRKNATRETTSTLKAWLNEH [IRX6] | 3.55 ± 0.28 | 3.58 ± 0.23 |  | 
REKIMKLPLPESLKAYLTYFRDK [PCMTD1] |  |  | 2.05 ± 0.36 | 2.59 ± 0.34
TSDAAFLTQWKDSLVSLVLYNMDL [ZER1] | 2.71 ± 0.52 | 2.56 ± 0.44 |  | 
LLCNAITGITLLRVKFKSQQHRQG [PTGFR] | 2.38 ± 0.46 | 2.21 ± 0.77 |  | 
LFFPEGTCSNKKALLKFKPGAFIA [LPCAT4] | 1.86 ± 0.38 | 2.41 ± 0.25 |  | 
VQLRFCGRQPCGRFLRAYREGALR [TRADD] | 2.61 ± 0.53 | 2.29 ± 0.65 |  | 
YLYYDPDYSFLSLGVYSALREIAF [ATE1] | 2.92 ± 0.2 | 2.67 ± 0.24 |  | 
IITSRILVDQVTGVSRGVGFIRFD [ELAVL3] | 2.42 ± 0.53 | 2.53 ± 0.28 |  | 
TGPRLSFPLLPDHATALVEAFRLK [PPEF2] | 2.89 ± 0.23 | 3.07 ± 0.19 |  | 
REHAKARVDHGAEIITQSPGRSSV [MAP2] | 4.75 ± 0.11 | 4.89 ± 0.12 |  | 
VHRQLGEANEEFALRVQQLVAKEL [AUP1] | 3.79 ± 0.076 | 3.88 ± 0.1 |  | 
REHELLCRADHGLLLERAAAGSPR [ISL2] | 3.82 ± 0.31 | 3.89 ± 0.062 |  | 
FHEVGTEMIITKAGRRMFPSYKVK [TBX5] | 2.35 ± 0.35 | 2.72 ± 0.33 |  | 
